# Experimental data reported in IntAct's records for PubMed 18335997.
# B1: Hemojuvelin (Homo sapiens), Q6ZVN8 (parent)
# chain: MGEPGQSPSPRSSHGSPPTLSTLTLLLLLCGHAHSQCKILRCNAEYVSSTLSLRGGGSSGALRGGGGGGRGGGVGSGGLCRALRSYALCTRRTARTCRGDLAFHSAVHGIEDLMIQHNCSRQGPTAPPPPRGPALPGAGSGLPAPDPCDYEGRFSRLHGRPPGFLHCASFGDPHVRSFHHHFHTCRVQGAWPLLDNDFLFVQATSSPMALGANATATRKLTIIFKNMQECIDQKVYQAEVDNLPVAFEDGSINGGDRPGGSSLSIQTANPGNHVEIQAAYIGTTIIIRQTAGQLSFSIKVAEDVAMAFSAEQDLQLCVGGCPPSQRLSRSERNRRGAITIDTARRLCKEGLPVEDAYFHSCVFDVLISGDPNFTVAAQAALEDARAFLPDLEKLHLFPSDAGVPLSSATLLAPLLSGLFVLWLCIQ
# partner: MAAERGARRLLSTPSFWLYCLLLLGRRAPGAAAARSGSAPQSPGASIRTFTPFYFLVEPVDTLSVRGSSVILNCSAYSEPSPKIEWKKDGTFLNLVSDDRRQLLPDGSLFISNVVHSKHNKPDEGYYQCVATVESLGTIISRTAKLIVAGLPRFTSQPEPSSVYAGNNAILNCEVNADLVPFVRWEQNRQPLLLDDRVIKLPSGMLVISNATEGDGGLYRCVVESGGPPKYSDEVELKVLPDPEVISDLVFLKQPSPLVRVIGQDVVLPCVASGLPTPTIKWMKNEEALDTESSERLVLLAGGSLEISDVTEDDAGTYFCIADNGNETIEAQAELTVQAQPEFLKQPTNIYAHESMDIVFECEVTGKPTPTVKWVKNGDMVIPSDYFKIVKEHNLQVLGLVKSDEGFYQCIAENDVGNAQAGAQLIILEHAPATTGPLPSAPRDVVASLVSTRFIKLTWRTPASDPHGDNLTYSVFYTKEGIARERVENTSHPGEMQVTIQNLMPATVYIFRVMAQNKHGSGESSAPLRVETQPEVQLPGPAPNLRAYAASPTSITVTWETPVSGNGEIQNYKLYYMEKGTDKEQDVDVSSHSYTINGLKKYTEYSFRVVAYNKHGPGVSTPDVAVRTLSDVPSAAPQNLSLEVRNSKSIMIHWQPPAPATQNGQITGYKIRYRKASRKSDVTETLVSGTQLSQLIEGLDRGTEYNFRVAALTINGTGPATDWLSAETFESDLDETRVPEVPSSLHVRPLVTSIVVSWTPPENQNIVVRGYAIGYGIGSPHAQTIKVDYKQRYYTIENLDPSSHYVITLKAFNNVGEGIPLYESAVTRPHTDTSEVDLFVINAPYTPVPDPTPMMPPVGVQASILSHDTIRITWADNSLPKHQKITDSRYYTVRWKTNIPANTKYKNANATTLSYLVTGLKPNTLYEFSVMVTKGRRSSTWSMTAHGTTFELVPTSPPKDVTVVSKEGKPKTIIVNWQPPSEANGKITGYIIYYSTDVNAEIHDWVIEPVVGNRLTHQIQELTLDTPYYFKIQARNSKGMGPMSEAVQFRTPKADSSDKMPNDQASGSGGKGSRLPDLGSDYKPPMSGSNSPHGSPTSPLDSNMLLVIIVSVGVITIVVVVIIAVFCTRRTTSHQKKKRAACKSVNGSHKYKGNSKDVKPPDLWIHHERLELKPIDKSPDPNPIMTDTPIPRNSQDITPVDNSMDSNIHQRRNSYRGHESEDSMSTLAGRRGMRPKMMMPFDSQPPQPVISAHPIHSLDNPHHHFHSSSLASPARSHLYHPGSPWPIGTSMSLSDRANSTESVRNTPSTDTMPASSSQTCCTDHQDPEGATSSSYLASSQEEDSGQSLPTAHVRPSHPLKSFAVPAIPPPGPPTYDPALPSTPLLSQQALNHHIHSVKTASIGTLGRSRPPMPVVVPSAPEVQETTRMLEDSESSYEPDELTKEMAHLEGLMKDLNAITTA
# Variants of: B1
# Details: with neo1_human NEO1, Q92859
row,effect of a mutation on the interaction,Variant
1,decreasing interaction strength,MGEPGQSPSPRSSHGSPPTLSTLTLLLLLCGHAHSQCKILRCNAEYVSSTLSLRGGGSSGALRGGGGGGRGGGVGSGGLCRALRSYALCTRRTARTCRGDLAFHSAVHGIEDLMIQHNCSRQGPTAPPPPRGPALPGAGSGLPAPDPCDYEGRFSRLHGRPPGFLHCASFGAPHVRSFHHHFHTCRVQGAWPLLDNDFLFVQATSSPMALGANATATRKLTIIFKNMQECIDQKVYQAEVDNLPVAFEDGSINGGDRPGGSSLSIQTANPGNHVEIQAAYIGTTIIIRQTAGQLSFSIKVAEDVAMAFSAEQDLQLCVGGCPPSQRLSRSERNRRGAITIDTARRLCKEGLPVEDAYFHSCVFDVLISGDPNFTVAAQAALEDARAFLPDLEKLHLFPSDAGVPLSSATLLAPLLSGLFVLWLCIQ [D172A]
